Test results as given in patent publication US6391305.
Several values for one entry are separate records, joined by “and”; a condition that tells them apart may be missing. Identical values can stand only once.

Legend:
[1] = system: 2,3-dihydroxypropionyl-HomoSSSChgQ-SL-DOX (3′)
[2] = system: Ac-hRASChgQ-SL-acid
[3] = system: AchRSSChgQ-SL-acid
[4] = system: PEG(2)-SSSChgQ-SL-DOX (3′)
[5] = system: 2,3-dihydroxypropionyl-ShRChgQ-SL-acid
[6] = system: (d)2,3-dihydroxypropionyl-SHomoRChgQ-SL-DOX (3′)
[7] = system: (d)2,3-dihydroxypropionyl-3PAL-SSChgQSL-acid
[8] = system: PEG(19)ShRYQ-SL-acid
[9] = system: 2-hydroxyacetyl-SSSChgQ-SL-DOX (3′)
[10] = system: PEG(2)-SHomoRChgQ-SL-DOX (3′)
[11] = system: 2,3-dihydroxypropionyl-hSSSChgQ-SL-acid
[12] = system: (d)2,3-dihydroxypropionylSSChgQ-SL-DOX (3′)
[13] = system: PEG(2)-HomoRSSChgQ-SL-DOX (3′)
[14] = system: 2-hydroxyacetyl-HomoRSSYQ-SL-DOX (3′)
[15] = system: (l)2,3-dihydroxypropionyl-SSSChgQ-SL-acid
[16] = system: PEG(2)-ASChgQ-SL-DOX (3′)
[17] = system: PEG(2)-ShRYQ-SL-acid
[18] = system: PEG(2)-hRSSChgQ-SL-acid
[19] = system: (OH-Ac)SSSChgQ-SL-acid
[20] = system: 2-hydroxyacetylhRYQ-SL-acid
[21] = system: (2R,3S) 2,3,4-trihydroxybutanoyl-SHomoRChgQ-SL-DOX (3′)
[22] = system: PEG(17)-ShRYQ-SL-acid
[23] = system: PEG(2)SSChgQ-SL-DOX (3′)
[24] = system: PEG(1)-ShRChgQ-SL-acid
[25] = system: (l)2,3-dihydroxypropionyl-SHomoRChgQ-SL-DOX (3′)
[26] = system: 2,3-dihydroxypropionyl-SSSChgQ-SL-acid
[27] = system: 2-hydroxyacetyl-SSChgQ-SL-DOX (3′)
[28] = system: 2-hydroxyacetyl-HomoRASChgQ-SL-DOX (3′)
[29] = system: PEG(1)-ShRYQ-SL-acid
[30] = system: (l)2,3-dihydroxypropionyl-SSChgQ-SL-acid
[31] = system: Ac-hR(CHA)Q-SNle-acid
[32] = system: 2-hydroxyacetyl-hRASChgQ-SL-acid
[33] = system: (d)2,3-dihydroxypropionylSSSChgQ-SL-DOX (3′)
[34] = system: 2(S)2,3-dihydroxypropionyl-hRSSChgQ-SL-acid
[35] = system: PEG(2)-S-hRChgQ-SL-acid
[36] = system: (2R,3S) 2,3,4-trihydroxybutanoyl-ShRChgQ-SL-acid
[37] = system: Ac-ANKASYQ-SL-acid
[38] = system: 2-hydroxyacetyl-SHomoRChgQ-SL-DOX (3′)
[39] = system: 2-hydroxyacetyl-HomoRSSChgQ-SL-DOX (3′)
[40] = system: 2-hydroxyacetyl-hRSSYQ-SNle-acid
[41] = system: 2(S)-2,3-dihydroxy-propionyl ShRChgQSL-acid
[42] = system: (d)2,3-dihydroxypropionyl-3PALSSChgQ-SL-DOX (3′).AcOH
[43] = system: Ac-ShRYQ-SNle-acid
[44] = system: (l)2,3-dihydroxypropionylSSSChgQ-SL-DOX (3′)
[45] = system: PEG(2)-3PAL-SSChgQ-SL-acid
[46] = system: PEG(14)ShRYQ-SL-acid
[47] = system: 2,3-dihydroxypropionyl-GSSChgQ-SL-acid
[48] = system: (d)2,3-dihydroxypropionyl-HomoRSSChgQSL-DOX (3′)
[49] = system: 2-hydroxyacetyl-SSChgQ-SL-acid
[50] = system: PEG(2)-SHomoRYQ-SL-DOX (3′)
[51] = system: (l)2,3-dihydroxypropionyl-SSChgQ-SL-DOX (3′)
[52] = system: PEG(2)-SHomoRYQ-SL-DOX(3′)
[53] = system: Ac-hRSSYQ-SNle-acid
[54] = system: PEG(15)-ShRYQ-SL-acid
[55] = system: PEG(1)-hRSSChgQ-SL-acid
[56] = system: PEG(4)-β-PAL-SSChgQ-SL-acid
[57] = system: PEG(18)ShRYQ-SL-acid
[58] = system: (l)2,3-dihydroxypropionyl-3PAL-SSChgQ-SL-acid
[59] = system: (l)2,3-dihydroxypropionylSSSChgQ-S(dL)-DOX (3′)
[60] = system: 2,3-dihydroxypropionyl-ShRYQ-SL-acid
[61] = system: PEG(2)SSSChgQ-SL-acid
[62] = system: PEG(16)-ShRYQ-SL-acid
[63] = system: (l)2,3-dihydroxypropionyl-HomoRSSChgQ-SL-DOX (3′)
[64] = system: 2-hydroxyacetyl-hRSSYQ-SL-acid
[65] = system: PEG(6)-ASChgQ-SL-DOX (3′)
[66] = system: 2-hydroxyacetyl-HomoRSSYQ-SNle-DOX (3′)
[67] = system: PEG(16)-SHomoRYQ-SL-DOX (3′)

For free prostate specific antigen (PSA), the Time to 50% Substrate Cleavage by York PSA [1] was 35 min, the Time to 50% Substrate Cleavage by York PSA [2] was 50 min and the Time to 50% Substrate Cleavage by York PSA [3] was 120 min and 45 min. The Time to 50% Substrate Cleavage by York PSA [4] was 60 min, the Time to 50% Substrate Cleavage by York PSA [5] was 75 min and the Time to 50% Substrate Cleavage by York PSA [6] was 65 min. It also gave a Time to 50% Substrate Cleavage by York PSA [7] of 80 min, a Time to 50% Substrate Cleavage by York PSA [8] of 60 min and a Time to 50% Substrate Cleavage by York PSA [9] of 25 min. It also gave a Time to 50% Substrate Cleavage by York PSA [10] of 25 min, a Time to 50% Substrate Cleavage by York PSA [11] of 160 min and a Time to 50% Substrate Cleavage by York PSA [12] of 120 min. For the same substance, the Time to 50% Substrate Cleavage by York PSA [13] was 11 min, the “Time to 50% Substrate Cleavage by York PSA (Min)” value [14] was 16 (PS) and the Time to 50% Substrate Cleavage by York PSA [15] was 80 min and 110 min. The Time to 50% Substrate Cleavage by York PSA [16] was 45 min, the Time to 50% Substrate Cleavage by York PSA [17] was 35 min and the Time to 50% Substrate Cleavage by York PSA [18] was 40 min. The Time to 50% Substrate Cleavage by York PSA [19] was 120 min, the Time to 50% Substrate Cleavage by York PSA [20] was 105 min and the Time to 50% Substrate Cleavage by York PSA [21] was 45 min. The Time to 50% Substrate Cleavage by York PSA [22] was 55 min, the Time to 50% Substrate Cleavage by York PSA [23] was 90 min and the Time to 50% Substrate Cleavage by York PSA [24] was 120 min. It also gave a Time to 50% Substrate Cleavage by York PSA [25] of 15 min, a Time to 50% Substrate Cleavage by York PSA [26] of 120 min and a Time to 50% Substrate Cleavage by York PSA [27] of 45 min. The Time to 50% Substrate Cleavage by York PSA [28] was 10 min, the Time to 50% Substrate Cleavage by York PSA [29] was 90 min and the Time to 50% Substrate Cleavage by York PSA [30] was 180 min. For the same substance, the “Time to 50% Substrate Cleavage by York PSA (Min)” value [31] was 200 (PS), the Time to 50% Substrate Cleavage by York PSA [32] was 70 min and the Time to 50% Substrate Cleavage by York PSA [33] was 55 min. It also gave a Time to 50% Substrate Cleavage by York PSA [34] of 25 min, a Time to 50% Substrate Cleavage by York PSA [35] of 30 min and a Time to 50% Substrate Cleavage by York PSA [36] of 90 min. The Time to 50% Substrate Cleavage by York PSA [37] was 135 min and 220 min, the Time to 50% Substrate Cleavage by York PSA [38] was 15 min and the Time to 50% Substrate Cleavage by York PSA [39] was 12 min. For the same substance, the Time to 50% Substrate Cleavage by York PSA [40] was 45 min, the Time to 50% Substrate Cleavage by York PSA [41] was 35 min and the “Time to 50% Substrate Cleavage by York PSA (Min)” value [42] was 12 (PS). The “Time to 50% Substrate Cleavage by York PSA (Min)” value [43] was 25 (PS), the Time to 50% Substrate Cleavage by York PSA [44] was 25 min and the Time to 50% Substrate Cleavage by York PSA [45] was 80 min. It also gave a Time to 50% Substrate Cleavage by York PSA [46] of 40 min, a Time to 50% Substrate Cleavage by York PSA [47] of 160 min and a Time to 50% Substrate Cleavage by York PSA [48] of 12 min. It also gave a Time to 50% Substrate Cleavage by York PSA [49] of 180 min, a Time to 50% Substrate Cleavage by York PSA [50] of 60 min and a Time to 50% Substrate Cleavage by York PSA [51] of 25 min. For the same substance, the Time to 50% Substrate Cleavage by York PSA [52] was 35 min, the “Time to 50% Substrate Cleavage by York PSA (Min)” value [53] was 25 (PS) and the Time to 50% Substrate Cleavage by York PSA [54] was 40 min. The Time to 50% Substrate Cleavage by York PSA [55] was 30 min, the Time to 50% Substrate Cleavage by York PSA [56] was 60 min and the Time to 50% Substrate Cleavage by York PSA [57] was 40 min. The Time to 50% Substrate Cleavage by York PSA [58] was 70 min, the Time to 50% Substrate Cleavage by York PSA [59] was 180 min and the Time to 50% Substrate Cleavage by York PSA [60] was 35 min and 50 min. It also gave a Time to 50% Substrate Cleavage by York PSA [61] of 150 min, a Time to 50% Substrate Cleavage by York PSA [62] of 40 min and a Time to 50% Substrate Cleavage by York PSA [63] of 12 min. For the same substance, the “Time to 50% Substrate Cleavage by York PSA (Min)” value [64] was 35 (PP), the Time to 50% Substrate Cleavage by York PSA [65] was 160 min and the Time to 50% Substrate Cleavage by York PSA [66] was 60 min. For the same substance, the Time to 50% Substrate Cleavage by York PSA [67] was 65 min.
